According to US20250296986A1:

Assays:
[1] = molecular target: human FcγRIIb (human) (UniProt P31994); test: compared with fucosylated wild-type human IgG1; MSD per FIGS. 10A-10C
[2] = molecular target: human FcγRIIa (H131 allele) (human) (UniProt P12318); test: as above
[3] = molecular target: human FcγRIIa (R131 allele) (human) (UniProt P12318); test: as above
[4] = molecular target: human C1q (human) (UniProt P02745); test: C1q binding assay (FIG. 15: antibody Fc captured on Octet sensor, human C1q in solution)
Sequence of human C1q (human) (P02745 23-245 limits assumed, chain 1 of 3): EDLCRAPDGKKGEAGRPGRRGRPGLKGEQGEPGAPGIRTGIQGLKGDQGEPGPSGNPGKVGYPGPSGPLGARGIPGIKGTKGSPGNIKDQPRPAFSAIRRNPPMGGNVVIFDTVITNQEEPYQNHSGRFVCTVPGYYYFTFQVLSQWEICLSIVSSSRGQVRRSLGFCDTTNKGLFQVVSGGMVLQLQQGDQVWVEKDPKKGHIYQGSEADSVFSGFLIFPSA
Sequence of human C1q (human) (P02746 28-253 limits assumed, chain 2 of 3, further chain): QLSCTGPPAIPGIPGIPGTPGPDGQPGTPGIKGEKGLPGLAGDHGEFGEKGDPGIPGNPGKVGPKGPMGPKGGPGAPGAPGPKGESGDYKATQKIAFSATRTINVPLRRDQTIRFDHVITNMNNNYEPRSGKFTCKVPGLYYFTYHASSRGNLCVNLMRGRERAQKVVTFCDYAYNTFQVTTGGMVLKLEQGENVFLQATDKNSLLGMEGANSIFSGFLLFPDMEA
Sequence of human C1q (human) (P02747 29-245 limits assumed, chain 3 of 3, further chain): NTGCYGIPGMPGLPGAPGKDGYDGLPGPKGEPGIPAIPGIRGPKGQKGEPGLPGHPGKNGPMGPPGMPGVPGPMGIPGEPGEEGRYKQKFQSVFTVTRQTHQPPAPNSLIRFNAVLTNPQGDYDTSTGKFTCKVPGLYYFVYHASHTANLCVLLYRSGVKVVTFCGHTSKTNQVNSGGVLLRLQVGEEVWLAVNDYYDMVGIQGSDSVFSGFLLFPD

Sequence of human FcγRIIa (R131 allele) (human) (P12318 34-218 H167R limits assumed): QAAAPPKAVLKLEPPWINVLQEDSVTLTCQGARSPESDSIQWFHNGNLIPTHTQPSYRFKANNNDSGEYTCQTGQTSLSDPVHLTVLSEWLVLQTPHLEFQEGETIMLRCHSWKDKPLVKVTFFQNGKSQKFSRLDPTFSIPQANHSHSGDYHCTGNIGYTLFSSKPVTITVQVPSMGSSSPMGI
Sequence of human FcγRIIa (H131 allele) (human) (P12318 34-218 limits assumed): as the sequence (P12318 34-218 H167R limits assumed) above, with R134H counted along it
Sequence of human FcγRIIb (human) (P31994 43-217 limits assumed): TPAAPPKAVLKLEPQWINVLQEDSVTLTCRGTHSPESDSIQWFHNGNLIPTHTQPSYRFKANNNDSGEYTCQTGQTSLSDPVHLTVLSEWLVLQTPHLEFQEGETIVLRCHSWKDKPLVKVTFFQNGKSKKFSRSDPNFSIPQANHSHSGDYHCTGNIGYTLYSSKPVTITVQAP

| Substance | fold-change in binding vs fucosylated wild-type human IgG1 [1] [fold] | fold-change in binding vs fucosylated wild-type human IgG1 [2] [fold] | fold-change in binding vs fucosylated wild-type human IgG1 [3] [fold] | C1q binding relative to reference IgG1 antibody bearing M428L and N434S mutations only [4] |
| --- | --- | --- | --- | --- |
| G236A_R292P (antibody) | < 0.5 | – | – | – |
| G236A_R292P_Y300L (antibody) | – | > 14 | > 2.7 | – |
| G236A_Y300L (antibody) | – | > 18 | > 4 | – |
| G236S_G420V_G446E_L309T (antibody) | < 0.5 | – | – | – |
| afucosylated Fc variant antibodies bearing the G236A ("GA") mutation (antibody) | – | – | – | 0.3 fold (×) |
